Experimental data as given in the DeepSol protein solubility set.

test: soluble on expression in E. coli; label from the status in PepcDB or PDB records

Sequence	soluble on expression in E. coli
MNSKSRITAIGTHVPNQILSNNDLEKMIDTNDEWIVQRTGMKERRIASEDEYSSNLAIKAVENLCTTYKKNLEDVDCIIVATTTADYVFPSVACQIQQYFNIPHTMAFDLNATCAGFTYGLHVGNSLITSGSHKKVLVVATETLSKVTDYTDRTTCILFGDGAGAILLERDENKPSFIAYHMGTNGHGGIHLYRTNLSTTMNDTPLQTNEKIVQNGREVYKWATRTVPVGIKELLHTANMKMDDIDWFIPHSANLRMIESICEKSQIPIHKTLTSVEYMGNTSSVSIPLALDLARKKGKLNNGDTLLLYGFGGGLTHLGLIVEWDLS	not soluble
MTITGIIAEFNPFHNGHKYLLDQAEGLKIVAMSGNFMQRGEPAIVDKWTRTQMALENGADLVVELPFLVSVQAADFFGQGAMDILDRLGIDSLVFGTEEVRDYQKIADLYTEKGAEMEKFVENLPDSLSYPQKTQAMWKEFAGLDFSGNTPNHVLALAYAKAVAGRNIKLHPIQRQGAGYHSVNKDVDFASATALRQHQKDQDFLERFMPSVALFEQASKVIWEDYFPLLRYQILSNPDLTTIYQVNQEMAVRIKEAIKTAQSVEELVELVTTKRYTKARVRRLLTYILMQARESDLPEAIHVLGFTEKGRQHLKSLKGQVSLVSRIGKEPWDAMTQKADQIYQLGKPSIAEQNFGRVPIRIETN	soluble
MSLEKVLVIVGPTAVGKTALSIALAKKFNGEIISGDSMQVYRSLDIGTAKVTETEKEGIPHYLIDCREVSETYSAADFQKEGRQKIKEITEKGKLPIIVGGTGLYIQSLLYDFQLGSREIDDSPEIRETYNLFAEEKGNQALWLLLQQKDPLAANSIHFNNRKKVIRALEVFDKTGYSILTPKEKPARLYDYYLLGLETDRALLYERINQRVDQMMTEGLLEEAKQMFQQPHAQAAQGIGYKEFFPYFSGEQSLEMAVETVKQQSRRYAKRQLTWFRNRMAAHWWNLVQQPTDLPKLEKEVAEWLQQKESEEGHHHHHH	soluble
MLCSMGTLFQRLSSLDGKGYGAYKSIAGRHALEGVPGAELFLDKVQSDPYAPASLSRVRVPLAALPFSGSLSTHQRDLLNRRIAGEFCHGLAIDCPGQQVLSRAAVTQLDDALQICFEVQLPARGRRIRGREAAQLLCTTLSRALDRALCITAGGDALRAELEAAAELERDQAALR	not soluble
MSIEVPISIPKTLIIIPAYNEEEAIADTLTRLLELKQHFTALSICVINDGSQDKTAQIVKNFPVHLINLPYNLGIGSAVQTGYKYAYENGYDIAIQFDADGQHNPDDLYKIIQPIAEGQCDMVLGSRFTEKTAYKGSISRRIGIFYFTALLKVLTKQTFMDPTSGYRAINREVITIFAHNYPKDYPEPEVLIHLKKKKLRINEISVNMQERQGGQSSITPLKSAYYMIKVSLAILMQKIVKGLEHHHHHH	not soluble
MSLNTSLLILLVASFSSLVLSQNDSKKGGLPKKVHFSFGPAYLRNLTKEEKQQYYAIFGNKDLTIKQQEDQRLAFAEKHGFGQAIKDDIKLKAGNHELIRKERPEIIKNLLAAHEATMKIFDNKDQTLSQREAAVNALKKKYPHAPSTLYYISRLITGNGKHQTPFIKHH	not soluble
MDGIRVYIETFGCTFNQADSEIMAGVLREEGAVLTGIDDADVIIINTCYVKHPTEHKVINRIKKIQETYPEKGLVVAGCMVEIDPSKLEAISGDASWLGPHQLRRAPQAVRAASNGLVERITGFTSDVKVKVPRVRSNPLIHIIPICEGCNGSCSYCCTRFARGRIQSYPSDLIISEAREAVASGCREIQLTAQDTAAYGVDTGEKLSDIIKGISGIPGNFRIRVGMMHPASVLRDLDGLVEAFKSEKVYSFLHLPVQSGSDSVLADMERGHTVDEFRMIVERFRSEIPDISIATDIIVGYPTEEREDFMDTCSLLEEVKPSFIHLSKYRHRPRARSSSLDEIDFRELRRRSRALEELKMRITEEENRRLVGSFQEILVVERGRKGGFIGRTGSYIPVVTETGEPGSFRRVRIRDATGTYLLADLEHHHHHH	soluble
MSLNFHDVRFPPSLSFGSLGGPQRRTDVVTLANGYEERNTPWAHSRRVYDAGLGMRSIDDVQALTGFFEARMGQMYGFRWKDWADFKSCASSVGVTFEDQSLGFGDGVRTDYQLVKTYSSGGHSYVRPITKPVAGTVRVGIEQDALQEGSDYEVDLSTGIIRFAHAPDPEMQVSAGFEFDVPVRFDTDRILVSVASFQAGQVPDVPVIEVRVEGHHHHHH	soluble
